± gives the standard error. Fewer inactive variants are shown than the library holds.
B1: glmS ribozyme (parent)
chain: AUAAAAGCGCCAGAACUACAGAAAUGUAGUUGACGAGGAGGAGGUUUAUCGAAUUUUCGGCGGAUGCCUCCAAA

Key:
Conditions in all cases: with glucosamine-6-phosphate
[1] = variants of: B1; test: self-cleavage kobs at 40 uM GlcN6P; higher = faster cleavage; RNA array
Procedure, shortened: (§1)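 The measurements used barcoded ribozyme variants on sequenced MiSeq chips, transcribed in situ by E. coli RNA polymerase and tracked at 37 °C with a hybridised Cy3 probe. Glucosamine-6-phosphate, 40 μM to 10 mM in HEPES/KCl/Mg(OAc)2 buffer, was flowed in while tiles were imaged over ~14 h. Baseline-normalised signals, also normalised to non-cleaving reference variants, gave per-tile medians that were fit to one- or two-exponential decays for kobs. kcat and KM resulted from weighted Michaelis–Menten fits across concentrations.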

[2] = variants of: B1; test: self-cleavage kobs at 160 uM GlcN6P; higher = faster cleavage; RNA array
Procedure, shortened: as §1

[3] = variants of: B1; test: self-cleavage kobs at 640 uM GlcN6P; higher = faster cleavage; RNA array
Procedure, shortened: as §1

[4] = variants of: B1; test: self-cleavage kobs at 10000 uM GlcN6P; higher = faster cleavage; RNA array
Procedure, shortened: as §1

[5] = variants of: B1; test: self-cleavage kobs at 2500 uM GlcN6P; higher = faster cleavage; RNA array
Procedure, shortened: as §1

**Q.** Which “self-cleavage kobs at 40 uM GlcN6P” value [1] does the source give for A33C A48G here?
**A.** The value was less than 1e-05 s⁻¹.

**Q.** And the “self-cleavage kobs at 160 uM GlcN6P” value [2]?
**A.** Its value is less than 1e-05 s⁻¹.

**Q.** What about the “self-cleavage kobs at 640 uM GlcN6P” value [3] of the same variant?
**A.** Its value is less than 1e-05 s⁻¹.

**Q.** What about the “self-cleavage kobs at 10000 uM GlcN6P” value [4] of the same variant?
**A.** Its value is less than 1e-05 s⁻¹.

**Q.** G32C A53U G59C C71U was tested. Which “self-cleavage kobs at 40 uM GlcN6P” value [1] did it give?
**A.** Its value is less than 1e-05 s⁻¹.

**Q.** What about the “self-cleavage kobs at 640 uM GlcN6P” value [3] of the same variant?
**A.** Its value is less than 1e-05 s⁻¹.

**Q.** What about the “self-cleavage kobs at 10000 uM GlcN6P” value [4] of the same variant?
**A.** The value was less than 1e-05 s⁻¹.

**Q.** Which “self-cleavage kobs at 40 uM GlcN6P” value [1] does the source give for A33U G38A G41C U54G here?
**A.** The value was less than 1e-05 s⁻¹.

**Q.** What does the source list for C34A G60A C71A?
**A.** self-cleavage kobs at 40 uM GlcN6P [1]: < 1e-05 s⁻¹; self-cleavage kobs at 10000 uM GlcN6P [4]: < 1e-05 s⁻¹

**Q.** Which results are given for U31G U56G?
**A.** self-cleavage kobs at 40 uM GlcN6P [1]: 0.000123 ± 2.1e-05 s⁻¹; self-cleavage kobs at 160 uM GlcN6P [2]: 0.000145 ± 4e-05 s⁻¹; self-cleavage kobs at 640 uM GlcN6P [3]: 0.000347 ± 8.2e-05 s⁻¹; self-cleavage kobs at 2500 uM GlcN6P [5]: 0.00132 ± 0.00034 s⁻¹; self-cleavage kobs at 10000 uM GlcN6P [4]: 0.00342 ± 0.00086 s⁻¹

**Q.** Which “self-cleavage kobs at 40 uM GlcN6P” value [1] does the source give for G32C U57C here?
**A.** Its value is less than 1e-05 s⁻¹.

**Q.** What about the “self-cleavage kobs at 160 uM GlcN6P” value [2] of the same variant?
**A.** Its value is less than 1e-05 s⁻¹.

**Q.** And the “self-cleavage kobs at 640 uM GlcN6P” value [3]?
**A.** Its value is less than 1e-05 s⁻¹.

**Q.** For C34G A42G U56G C67A, which “self-cleavage kobs at 40 uM GlcN6P” value [1] is on record?
**A.** The value was less than 1e-05 s⁻¹.

**Q.** What about the “self-cleavage kobs at 10000 uM GlcN6P” value [4] of the same variant?
**A.** The value was less than 1e-05 s⁻¹.

**Q.** What does the source list for A33C U45C?
**A.** self-cleavage kobs at 40 uM GlcN6P [1]: < 1e-05 s⁻¹; self-cleavage kobs at 10000 uM GlcN6P [4]: 4.65e-05 ± 1.3e-05 s⁻¹

**Q.** What does the source list for G32C G38C G60C C67G?
**A.** self-cleavage kobs at 40 uM GlcN6P [1]: < 1e-05 s⁻¹; self-cleavage kobs at 640 uM GlcN6P [3]: < 1e-05 s⁻¹; self-cleavage kobs at 10000 uM GlcN6P [4]: < 1e-05 s⁻¹

**Q.** What does the source list for A33U U65C?
**A.** self-cleavage kobs at 40 uM GlcN6P [1]: < 1e-05 s⁻¹; self-cleavage kobs at 160 uM GlcN6P [2]: < 1e-05 s⁻¹; self-cleavage kobs at 640 uM GlcN6P [3]: < 1e-05 s⁻¹

**Q.** G32U U65C was tested. Which “self-cleavage kobs at 40 uM GlcN6P” value [1] did it give?
**A.** The value was less than 1e-05 s⁻¹.

**Q.** And the “self-cleavage kobs at 160 uM GlcN6P” value [2]?
**A.** Its value is less than 1e-05 s⁻¹.

**Q.** And the “self-cleavage kobs at 640 uM GlcN6P” value [3]?
**A.** The value was less than 1e-05 s⁻¹.

**Q.** And the “self-cleavage kobs at 2500 uM GlcN6P” value [5]?
**A.** Its value is less than 1e-05 s⁻¹.

**Q.** How did the “self-cleavage kobs at 40 uM GlcN6P” value [1] turn out when U31C U49G C67U was run?
**A.** Its value is less than 1e-05 s⁻¹.

**Q.** Which “self-cleavage kobs at 40 uM GlcN6P” value [1] does the source give for A33U G51U here?
**A.** The value was less than 1e-05 s⁻¹.

**Q.** What about the “self-cleavage kobs at 160 uM GlcN6P” value [2] of the same variant?
**A.** The value was less than 1e-05 s⁻¹.

**Q.** Which “self-cleavage kobs at 40 uM GlcN6P” value [1] does the source give for A33C U47C G59A here?
**A.** The value was less than 1e-05 s⁻¹.

**Q.** Which results are given for C34G A39C U46G?
**A.** self-cleavage kobs at 40 uM GlcN6P [1]: < 1e-05 s⁻¹; self-cleavage kobs at 160 uM GlcN6P [2]: < 1e-05 s⁻¹; self-cleavage kobs at 2500 uM GlcN6P [5]: < 1e-05 s⁻¹; self-cleavage kobs at 10000 uM GlcN6P [4]: < 1e-05 s⁻¹

**Q.** G32U G63A C67U was tested. Which “self-cleavage kobs at 40 uM GlcN6P” value [1] did it give?
**A.** The value was less than 1e-05 s⁻¹.

**Q.** And the “self-cleavage kobs at 2500 uM GlcN6P” value [5]?
**A.** The value was less than 1e-05 s⁻¹.

**Q.** What about the “self-cleavage kobs at 10000 uM GlcN6P” value [4] of the same variant?
**A.** Its value is less than 1e-05 s⁻¹.

**Q.** How did the “self-cleavage kobs at 40 uM GlcN6P” value [1] turn out when A33G G60C C61U was run?
**A.** Its value is less than 1e-05 s⁻¹.

**Q.** What about the “self-cleavage kobs at 640 uM GlcN6P” value [3] of the same variant?
**A.** Its value is less than 1e-05 s⁻¹.

**Q.** What about the “self-cleavage kobs at 10000 uM GlcN6P” value [4] of the same variant?
**A.** Its value is less than 1e-05 s⁻¹.

**Q.** What does the source list for A33C A36C?
**A.** self-cleavage kobs at 40 uM GlcN6P [1]: < 1e-05 s⁻¹; self-cleavage kobs at 2500 uM GlcN6P [5]: < 1e-05 s⁻¹

**Q.** What does the source list for A33G A42U?
**A.** self-cleavage kobs at 40 uM GlcN6P [1]: < 1e-05 s⁻¹; self-cleavage kobs at 160 uM GlcN6P [2]: < 1e-05 s⁻¹; self-cleavage kobs at 640 uM GlcN6P [3]: < 1e-05 s⁻¹; self-cleavage kobs at 2500 uM GlcN6P [5]: < 1e-05 s⁻¹; self-cleavage kobs at 10000 uM GlcN6P [4]: < 1e-05 s⁻¹

**Q.** How did the “self-cleavage kobs at 40 uM GlcN6P” value [1] turn out when A33G G35C C70G was run?
**A.** Its value is 0.000358 ± 8.4e-05 s⁻¹.

**Q.** And the “self-cleavage kobs at 10000 uM GlcN6P” value [4]?
**A.** Its value is 0.000163 ± 4.5e-05 s⁻¹.

**Q.** Which results are given for U31C A39U C68A?
**A.** self-cleavage kobs at 40 uM GlcN6P [1]: < 1e-05 s⁻¹; self-cleavage kobs at 640 uM GlcN6P [3]: < 1e-05 s⁻¹

**Q.** With G32C G35C as the variant, how does the “self-cleavage kobs at 40 uM GlcN6P” value [1] read?
**A.** The value was less than 1e-05 s⁻¹.

**Q.** What about the “self-cleavage kobs at 640 uM GlcN6P” value [3] of the same variant?
**A.** The value was less than 1e-05 s⁻¹.

**Q.** And the “self-cleavage kobs at 10000 uM GlcN6P” value [4]?
**A.** The value was less than 1e-05 s⁻¹.

**Q.** Which results are given for G32C G62A?
**A.** self-cleavage kobs at 40 uM GlcN6P [1]: < 1e-05 s⁻¹; self-cleavage kobs at 160 uM GlcN6P [2]: < 1e-05 s⁻¹; self-cleavage kobs at 640 uM GlcN6P [3]: < 1e-05 s⁻¹; self-cleavage kobs at 2500 uM GlcN6P [5]: < 1e-05 s⁻¹

From the supplement of paper PMC7125110
